Results taken from article doi:10.1101/2025.02.12.637899, “UB-MBX-46 is a potent and selective antagonist of the human P2X7 receptor developed by structure-based drug design” (bioRxiv, 2025).

Biological target: the molecule itself
Assay: cryo-EM structure; purified receptor in 20 mM HEPES pH 7.0, 100 mM NaCl, 0.5 mM C12M (DDM); apo, or incubated with 900 uM ATP or with antagonist at 3-4x the molar concentration of the monomer; homotrimer

B1: full-length wild-type human P2X7 receptor (receptor, UniProt Q99572 1-595, looked up)
chain: MPACCSCSDVFQYETNKVTRIQSMNYGTIKWFFHVIIFSYVCFALVSDKLYQRKEPVISSVHTKVKGIAEVKEEIVENGVKKLVHSVFDTADYTFPLQGNSFFVMTNFLKTEGQEQRLCPEYPTRRTLCSSDRGCKKGWMDPQSKGIQTGRCVVYEGNQKTCEVSAWCPIEAVEEAPRPALLNSAENFTVLIKNNIDFPGHNYTTRNILPGLNITCTFHKTQNPQCPIFRLGDIFRETGDNFSDVAIQGGIMGIEIYWDCNLDRWFHHCRPKYSFRRLDDKTTNVSLYPGYNFRYAKYYKENNVEKRTLIKVFGIRFDILVFGTGGKFDIIQLVVYIGSTLSYFGLAAVFIDFLIDTYSSNCCRSHIYPWCKCCQPCVVNEYYYRKKCESIVEPKPTLKYVSFVDESHIRMVNQQLLGRSLQDVKGQEVPRPAMDFTDLSRLPLALHDTPPIPGQPEEIQLLRKEATPRSRDSPVWCQCGSCLPSQLPESHRCLEELCCRKKPGACITTSELFRKLVLSRHVLQFLLLYQEPLLALDVDSTNSRLRHCAYRCYATWRFGSQDMADFAILPSCCRWRIRKEFPKSEGQYSGFKSPY
modifications: palmitoylation of residues on the C-cys anchor; limited glycosylation, acylation and palmitoylation modelled where density allowed
notes: P2X7 receptor (P2X purinoceptor 7), human, full-length wild type, no mutations or truncations; UniProt Q99572; The construct carries a C-terminal GFP, a 3C protease site and a histidine tag; the protein was digested with HRV 3C protease before SEC; also called hP2X7R; hP2X7; not shown: GFP, C-terminal, cleaved
Question: How did the “stoichiometry N” value turn out when B1 was run?
Answer: 3

B2: full-length wild-type mouse P2X7 receptor (receptor, UniProt Q9Z1M0 1-595, looked up)
chain: MPACCSWNDVLQYETNKVTRIQSTNYGTVKWVLHMIVFSYISFALVSDKLYQRKEPVISSVHTKVKGIAEVTENVTEGGVTKLGHSIFDTADYTFPLQGNSFFVMTNYVKSEGQVQTLCPEYPRRGAQCSSDRRCKKGWMDPQSKGIQTGRCVPYDKTRKTCEVSAWCPTEEEKEAPRPALLRSAENFTVLIKNNIHFPGHNYTTRNILPTMNGSCTFHKTWDPQCSIFRLGDIFQEAGENFTEVAVQGGIMGIEIYWDCNLDSWSHHCRPRYSFRRLDDKNTDESFVPGYNFRYAKYYKENNVEKRTLIKAFGIRFDILVFGTGGKFDIIQLVVYIGSTLSYFGLATVCIDLLINTYSSAFCRSGVYPYCKCCEPCTVNEYYYRKKCESIMEPKPTLKYVSFVDEPHIRMVDQQLLGKSLQVVKGQEVPRPQMDFSDLSRLSLSLHDSPLTPGQSEEIQLLHEEVAPKSGDSPSWCQCGNCLPSRLPEQRRALEELCCRRKPGRCITTSKLFHKLVLSRDTLQLLLLYQDPLLVLGEEATNSRLRHRAYRCYATWRFGSQDMADFAILPSCCRWRIRKEFPKTEGQYSGFKYPY
modifications: palmitoylation of residues on the C-cys anchor; limited glycosylation, acylation and palmitoylation modelled where density allowed
notes: P2X7 receptor (P2X purinoceptor 7), mouse, full-length wild type, no mutations or truncations; UniProt Q9Z1M0; The construct carries a C-terminal GFP, a 3C protease site and a histidine tag; digested with HRV 3C protease before SEC; Homotrimer in the apo closed state structure; also called mP2X7R; mP2X7; source: HEK293 GNTI- cells, BacMam, purified (DDM/CHS, TALON, SEC); not shown: GFP, …
Question: How did the “stoichiometry N” value turn out when B2 was run?
Answer: 3
